“Also recorded” adds a separate entry of the source.
Experiments:
tmCLIC1 ion channel [1] = molecular target: T1, tmCLIC1 ion channel (Mus musculus, UniProt Q9Z1Q5); assay: Whole-cell patch clamp on BV2 microglial cells with β-amyloid; format: cell-based, mice; settings: whole-cell configuration, perfusion of antibody after β-amyloid
T1 construct: endogenous in cells; host or cells: BV-2 mouse microglial cell line
Description: (§1) The microglial cells used (BV-2) originated from an immortalised cell line deriving from C57BL/6 mice and commonly marketed. The culture medium used was RPMI (Thermo Fisher Scientific) with the addition of 10% FBS (Euroclone) and 1% Pen/Strep ([…], Thermo Fisher Scientific).
(§2) The microelectrodes were obtained from borosilicate capillaries with a diameter of 1.5 mm. Micropipettes were produced with a P-97 Brown-Flaming puller (Sutter Instruments, Novato, CA), with which the capillaries were forged to a tip diameter of 1-1.5 μm and electrical resistance of 5-8 MΩ.
(§3) The perforated patch clamp configuration was used for the whole-cell experiments, employing the antibiotic gramicidin (final concentration in pipette 5 μg/ml) which forms pores in the membrane that are only permeable to monovalent cations; in this way, the cytoplasmic concentration of the chloride ion remains unchanged throughout the experiment. The ion currents were digitised at 5 kHz and filtered at 1 kHz. Clampex 9.2 was used as the data acquisition and analysis programme.
In the time-course experiments, the potential was set on the basis of the resting potential of each cell, and a voltage step of +60 mV was applied every 5 seconds. The current measured is that observed at the end of the voltage step lasting 800 ms. When the amplitude of the current reaches a constant value, the antibody and IAA94 are added in sequence. […]

mouse glioblastoma cells = assay: Glioblastoma cell growth curves, polyclonal antibody versus tmCLIC1omab; format: cell-based; settings: exposing cells for 96 hours
Description: (§4) The cells were seeded in 24-well plates (20,000 cells/well) and counted after 24, 48, 72 and 96 hours to construct the growth curve. The cells were collected and centrifuged, and the resuspended pellet was diluted 1:1 with Trypan Blue. An automated counter (Countess II, Thermo Fisher Scientific) was used to count the cells. All data were normalized to their controls.
The cells were plated in 24-well multiwell plates at a density of 10,000 cells/cm 2. The number of live and dead cells for each sample was counted after 72 hours with an automated counter (Countess II, Thermo Fisher Scientific), following the same process as used for the growth curves. All data were standardised to the corresponding controls.

CLIC1 = molecular target: T2, CLIC1 (Homo sapiens, UniProt O00299); assay: Whole-cell patch clamp on HEK cells transfected with CLIC1 plasmid; format: cell-based; settings: HEK cells overexpressing CLIC1; voltage steps from −60 to +80 mV; IAA94 50 μM
T2 construct: expressed in transfected cells; host or cells: HEK cells
Description: FIG. 17. Current/voltage relationship of CLIC1 membrane current in whole-cell patch clamp experiments. HEK cells were transfected with CLIC1 plasmid to overexpress the CLIC1 protein. After recording control current (filled cycles; n=5) cells were perfused alternatively with the polyclonal antibody (open triangles; n=7), tmCLIComab (inverse open triangles; n=10) and with 50 μM IAA94 (filled squared; n=11). The whole cells current is expressed as a current density.
The reference sequence of the CLIC1 protein used in the experiments described in the present patent application is filed at UniProt under number UniProtKB—000299 (CLIC1 human), and described in the article Harrop S. J. et al., “Crystal structure of a soluble form of the intracellular chloride ion channel CLIC1 (NCC27) at 1.4-Å Resolution”; The Journal of Biological Chemistry, Vol. 276 No. 48, November 30, pp. 44993-45000 (2001).
The potential was set on the basis of the resting potential of each cell (between 0 and −80 mV). The CLIC1-mediated chlorine currents were isolated from other ion currents by mathematical subtraction of the residual current following perfusion of 100 μM IAA94 dissolved in the external solution.

[2] = molecular target: T3, peptide […] (amino acids 3-24 of the CLIC1 protein) (Homo sapiens, UniProt O00299); assay: PEPperMAP epitope mapping on CLIC1 peptide microarrays; format: binding
T3 construct: conducted against the peptide […]; (amino acids 3-24 of the CLIC1 protein); host or cells: synthetic peptide microarray (PEPperMAP)
Description: PEPperMAP epitope Mapping® of the tmCLIC1omab antibody was conducted against the peptide […] (amino acids 3-24 of the CLIC1 protein) translated to linear peptides consisting of 5, 10 and 15 amino acids with peptide-peptide overlaps of 4, 9 and 14 amino acids for high-resolution epitope data. The resulting CLIC1 peptide microarrays were incubated with the antibody samples at concentrations of 1 μg/ml, 10 μg/ml, 100 μg/ml and 250 μg/ml in incubation buffer, followed by staining with secondary and control antibodies and reading with a LI-COR Odyssey Imaging System. The intensity of the points and peptide annotation were quantified with the PepSlide® Analyzer.

tmCLIC1 ion channel [3] = molecular target: T4, tmCLIC1 ion channel (Homo sapiens, UniProt O00299); assay: Patch clamp of CLIC1-mediated chloride current in primary human tumour cultures; format: cell-based; settings: perforated patch clamp; glioblastoma, colorectal and prostate primary human tumour cultures; perfusion of antibody
T4 construct: endogenous in cells; host or cells: primary human glioblastoma, colorectal cancer and prostate cancer cells
Description: as §2, §3
In the time-course experiments, the potential was set on the basis of the resting potential of each cell, and a voltage step of +60 mV was applied every 5 seconds. The current measured is that observed at the end of the voltage step lasting 800 ms. When the amplitude of the current reaches a constant value, the antibody and IAA94 are added in sequence.
For the current-voltage graph, the voltage step protocol used to isolate the currents consisted of voltage variations ranging from −60 mV to +60 mV, with progressive increments of 20 mV lasting 800 ms. […]

human glioblastoma cells = assay: Glioblastoma cells pre-treated with antibody, inoculated into the brain of immunodepressed mice, magnetic resonance scan; format: in vivo; settings: cells incubated 72 hours with antibody before inoculation; scan two months after inoculation
Description: In the in vivo experiments, human glioblastoma cells were incubated for 72 hours with tmCLIC1omab antibody before being inoculated into the brain of immunodepressed mice.
Patient-derived neurospheres were mechanically dissociated, resuspended in […], and injected into the caudate nucleus (1 mm posterior, 3 mm left lateral, 3.5 mm deep relative to bregma) of 5-week-old female CD1 nu/nu mice (Charles River, Wilmington, MA). The cells were incubated with the antibody or the control isotype for 72 hours before implantation (10^5 cells) into the brain of immunodeficient mice. The experiments were conducted pursuant to Italian law (Order of the Executive 116/92, as amended), which transposes EU Directive 86/609 (Council Directive 86/609/EEC of 24 Nov. 1986 on the approximation of laws, regulations and administrative provisions of the Member States regarding the protection of animals used for experimental and other scientific purposes).

pMAP38 = assay: Western blot of phosphorylated MAP38 in COLO201; format: cell-based; settings: COLO201, 72 h of treatment
microglial cells = assay: Growth curves of microglial cells stimulated with β-amyloid; format: cell-based, mice; settings: 1 μM β-amyloid, 4-day observation period
Description: as §1, §4

B1: tmCLIC1omab: IgG1 class antibody containing the heavy chain variable region SEQ ID NO:13 and the light chain variable region SEQ ID NO:14 (antibody, listed as Mus musculus, V domains shown)
VH: EVMLVESGGGLVKPGGSLKLSCAASGFAFSNYAMSWIRQIPEKRLEWVATISTGGSSTFYPDSVKGRFTISRDNAKNTLYLQMSSLRSEDTAMYYCTRHAYEAWFAYWGQGTLVTVSA
VL: QIVLTQSPALMSASPGEKVTMTCSASSSVSYMYWYQQRPRSSPKPWIYLTSTLASGVPTRFSGSGSGTSYSLTISSMEAEDAATYYCQQWNSHPLTFGSGTKLEIK
reduction of membrane current increased by β-amyloid peptide (tmCLIC1 ion channel [1]): about fourfold
percentage of cell death (mouse glioblastoma cells): 15%
inhibition of CLIC1 ionic whole-cell current (CLIC1): matched only by tmCLIC1omab
binding to the QVELFV sequence ([2]; linear peptide microarray): with lower affinity, binds the QVELFV sequence (SEQ ID NO:27) well
epitope sequence for which the antibody exhibits specificity ([2]; linear peptides of 5, 10 and 15 amino acids, antibody 1-250 μg/ml): QVELF
CLIC1-mediated chloride current (current density/voltage) (tmCLIC1 ion channel [3]): almost totally eliminated; also recorded: depressed and almost eliminated the membrane current
tumour mass on magnetic resonance scan (human glioblastoma cells): much smaller mass
expression of pMAP38 (pMAP38): downregulated
cell proliferation in the presence of β-amyloid (microglial cells): completely inhibited

Source: patent US20240002499A1, “ANTI-CLIC1 PROTEIN ANTIBODIES AND THE DIAGNOSTIC AND THERAPEUTIC USES THEREOF” (Universita' Degli Studi di Milano, priority 2020, published 2024)
